The results in this text go back to patent US20220204643A1 (published 2022).

Test [1] deals with T1, microtubule associated scaffold protein 2, transcript variant 2 (human, UniProt Q5JR59 1040-1369).
T1 construct: HuProt array protein, full-length recombinant from yeast; also called MTUS2
T1 sequence: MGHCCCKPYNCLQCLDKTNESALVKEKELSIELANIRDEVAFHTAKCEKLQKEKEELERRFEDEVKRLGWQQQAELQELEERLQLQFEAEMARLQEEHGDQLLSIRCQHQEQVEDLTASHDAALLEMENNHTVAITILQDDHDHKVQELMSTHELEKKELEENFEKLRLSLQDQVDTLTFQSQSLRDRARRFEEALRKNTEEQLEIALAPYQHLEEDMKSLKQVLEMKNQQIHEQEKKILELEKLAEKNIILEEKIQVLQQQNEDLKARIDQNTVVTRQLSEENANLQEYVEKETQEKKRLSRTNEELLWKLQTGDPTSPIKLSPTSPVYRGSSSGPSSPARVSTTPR

Test [2] addresses T2, RAN binding protein 10, transcript variant 1 (human, UniProt Q6VN20 2-620).
T2 construct: HuProt array protein, full-length recombinant from yeast; also called RANBP10

For the next test, the target named is T3, Bcl2 like 1 (human, UniProt Q07817 1-233).
T3 construct: HuProt array protein, full-length recombinant from yeast; also called BCL2L1

Test [3] addresses T4, anterior gradient 3, protein disulphide isomerase family member (human, UniProt Q8TD06 22-166).
T4 construct: HuProt array protein, full-length recombinant from yeast; also called AGR3
T4 sequence: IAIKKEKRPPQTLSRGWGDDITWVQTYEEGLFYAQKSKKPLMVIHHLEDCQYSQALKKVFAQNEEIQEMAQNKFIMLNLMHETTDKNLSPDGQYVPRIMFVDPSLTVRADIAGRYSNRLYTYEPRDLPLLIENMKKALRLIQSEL

The target in a further test is T5, Ubiquilin 3 (human, UniProt Q9H347 1-655).
T5 construct: HuProt array protein, full-length recombinant from yeast; also called UBQLN3
T5 sequence: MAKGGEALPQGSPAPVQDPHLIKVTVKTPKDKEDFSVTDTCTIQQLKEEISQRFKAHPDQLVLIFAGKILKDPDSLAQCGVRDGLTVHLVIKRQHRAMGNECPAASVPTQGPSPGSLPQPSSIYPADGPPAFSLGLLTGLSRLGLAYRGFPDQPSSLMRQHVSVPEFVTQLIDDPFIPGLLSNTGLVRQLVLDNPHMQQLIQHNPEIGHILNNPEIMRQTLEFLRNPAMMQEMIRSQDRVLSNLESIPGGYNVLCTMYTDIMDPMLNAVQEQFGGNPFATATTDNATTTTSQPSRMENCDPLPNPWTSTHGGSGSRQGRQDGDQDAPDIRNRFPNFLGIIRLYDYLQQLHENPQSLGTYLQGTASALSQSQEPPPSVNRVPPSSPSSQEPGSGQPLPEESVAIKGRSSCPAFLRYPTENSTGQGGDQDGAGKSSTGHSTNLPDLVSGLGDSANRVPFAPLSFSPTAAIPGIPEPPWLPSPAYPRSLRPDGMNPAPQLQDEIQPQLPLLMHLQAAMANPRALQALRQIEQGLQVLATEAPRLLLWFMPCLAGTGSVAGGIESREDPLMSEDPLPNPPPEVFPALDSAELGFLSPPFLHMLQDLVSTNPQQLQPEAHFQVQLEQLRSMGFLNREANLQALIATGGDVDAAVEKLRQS

In a further test the target is T6, ubiquilin 2 (human, UniProt Q9UHD9 2-624).
T6 construct: HuProt array protein, full-length recombinant from yeast; also called UBQLN2

In test [4] the target is T7, ubiquilin 1, transcript variant 2 (human, UniProt Q9UMX0 2-589).
T7 construct: HuProt array protein, full-length recombinant from yeast; also called UBQLN1

Another test has as its target T8, zinc finger protein 296 (human, UniProt Q8WUU4 1-475).
T8 construct: HuProt array protein, full-length recombinant from yeast; also called ZNF296
T8 sequence: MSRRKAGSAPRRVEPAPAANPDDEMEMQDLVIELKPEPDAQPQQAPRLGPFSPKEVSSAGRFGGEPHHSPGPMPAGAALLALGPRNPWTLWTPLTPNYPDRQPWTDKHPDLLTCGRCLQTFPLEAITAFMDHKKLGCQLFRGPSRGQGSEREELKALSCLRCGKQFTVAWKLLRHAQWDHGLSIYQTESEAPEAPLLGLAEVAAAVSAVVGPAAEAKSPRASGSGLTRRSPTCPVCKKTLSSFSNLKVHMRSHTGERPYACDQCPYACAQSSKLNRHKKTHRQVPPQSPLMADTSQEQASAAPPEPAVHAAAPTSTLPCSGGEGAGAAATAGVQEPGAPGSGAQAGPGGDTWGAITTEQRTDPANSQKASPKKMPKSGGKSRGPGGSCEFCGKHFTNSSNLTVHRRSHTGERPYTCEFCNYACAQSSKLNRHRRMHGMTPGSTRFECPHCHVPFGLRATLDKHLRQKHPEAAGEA

Test [5] deals with phosphodiesterase 5A, transcript variant 1 (human, UniProt O76074 1-875).

T2 sequence (Q6VN20 2-620 limits assumed, change not shown): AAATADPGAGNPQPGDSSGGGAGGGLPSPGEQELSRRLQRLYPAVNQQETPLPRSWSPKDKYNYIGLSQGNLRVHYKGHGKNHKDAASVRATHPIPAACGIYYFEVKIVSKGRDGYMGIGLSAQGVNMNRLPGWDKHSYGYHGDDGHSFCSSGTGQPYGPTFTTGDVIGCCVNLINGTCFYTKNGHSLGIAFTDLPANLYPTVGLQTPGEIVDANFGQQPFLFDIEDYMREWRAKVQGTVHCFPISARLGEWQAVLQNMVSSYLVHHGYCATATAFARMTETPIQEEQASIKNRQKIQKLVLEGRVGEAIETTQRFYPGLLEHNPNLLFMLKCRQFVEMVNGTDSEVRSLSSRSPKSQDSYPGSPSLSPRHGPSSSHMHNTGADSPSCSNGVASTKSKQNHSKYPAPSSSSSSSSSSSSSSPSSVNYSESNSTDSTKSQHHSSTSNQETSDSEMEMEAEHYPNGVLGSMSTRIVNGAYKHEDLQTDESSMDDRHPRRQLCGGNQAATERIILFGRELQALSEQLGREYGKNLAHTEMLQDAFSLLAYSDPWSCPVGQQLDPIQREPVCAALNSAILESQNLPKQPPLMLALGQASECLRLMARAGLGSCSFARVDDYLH
T3 sequence (Q07817 whole entry): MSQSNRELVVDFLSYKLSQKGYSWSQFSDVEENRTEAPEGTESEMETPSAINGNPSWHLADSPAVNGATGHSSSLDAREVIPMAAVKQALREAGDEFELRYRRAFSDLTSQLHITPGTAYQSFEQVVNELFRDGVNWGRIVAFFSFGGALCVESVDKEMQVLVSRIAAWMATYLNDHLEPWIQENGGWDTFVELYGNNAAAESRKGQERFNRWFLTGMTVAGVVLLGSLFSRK
T6 sequence (Q9UHD9 2-624 limits assumed): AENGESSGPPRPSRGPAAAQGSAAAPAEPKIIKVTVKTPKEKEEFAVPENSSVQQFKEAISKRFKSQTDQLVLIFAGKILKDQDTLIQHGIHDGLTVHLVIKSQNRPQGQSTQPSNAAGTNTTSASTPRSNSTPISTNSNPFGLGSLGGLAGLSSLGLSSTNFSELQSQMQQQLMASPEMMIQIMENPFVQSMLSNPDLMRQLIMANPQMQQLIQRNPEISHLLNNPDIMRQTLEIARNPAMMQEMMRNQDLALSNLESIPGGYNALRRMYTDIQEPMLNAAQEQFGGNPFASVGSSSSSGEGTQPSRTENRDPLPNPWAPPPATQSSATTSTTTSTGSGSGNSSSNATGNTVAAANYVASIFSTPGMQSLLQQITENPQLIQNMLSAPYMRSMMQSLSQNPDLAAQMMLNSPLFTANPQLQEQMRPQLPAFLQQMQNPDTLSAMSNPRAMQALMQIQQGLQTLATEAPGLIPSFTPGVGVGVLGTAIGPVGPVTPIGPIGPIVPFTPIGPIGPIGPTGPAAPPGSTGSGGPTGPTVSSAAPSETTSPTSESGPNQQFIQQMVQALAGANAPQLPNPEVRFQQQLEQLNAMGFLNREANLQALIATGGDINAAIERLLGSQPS
T7 sequence (Q9UMX0 other isoform, or with tags, fused parts or gaps mutant limits assumed): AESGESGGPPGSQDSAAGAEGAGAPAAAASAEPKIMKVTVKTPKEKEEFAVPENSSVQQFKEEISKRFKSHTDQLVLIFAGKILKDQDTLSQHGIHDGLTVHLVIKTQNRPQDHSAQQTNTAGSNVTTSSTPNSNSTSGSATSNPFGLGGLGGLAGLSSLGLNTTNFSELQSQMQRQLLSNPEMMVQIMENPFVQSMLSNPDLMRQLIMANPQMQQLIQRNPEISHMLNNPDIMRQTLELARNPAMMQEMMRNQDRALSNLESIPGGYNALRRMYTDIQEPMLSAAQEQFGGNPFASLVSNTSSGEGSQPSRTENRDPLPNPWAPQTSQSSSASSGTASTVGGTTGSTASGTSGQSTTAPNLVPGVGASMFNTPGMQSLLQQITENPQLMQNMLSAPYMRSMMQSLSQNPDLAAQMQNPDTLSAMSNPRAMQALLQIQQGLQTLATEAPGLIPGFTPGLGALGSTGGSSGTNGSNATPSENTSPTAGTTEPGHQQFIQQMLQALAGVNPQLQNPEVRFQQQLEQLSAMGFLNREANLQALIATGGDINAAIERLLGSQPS

B1: TMEL1027 (antibody, V domains shown)
VH: QVQLVQSGAEVKKPGASVKVSCKASGYTFTVYYMHWVRQAPGQGLEWMGRINPNSGGTNYAQKFQGRVTMTRDTSISTAYMELSRLTSDDTAVYYCARVVVVGTDYGMDVWGQGTTVTVSS
VL: VSSELTQDPAVSVALGQTVRITCQGDSLRSYYASWYQQRPGQAPVLVIYGKNNRPSGIPDRFSGSSSGNTASLTITGAQAEDEADYYCNSRDSSGNHVFGTGTKVTVLG
notes: detected with anti-human IgG Fc
As for B1, in [1], the binding result is reported as “binds”.

B2: TMEL1017 (antibody, V domains shown)
VH: EVQLVESGGGLVKPGGSLRLSCAASGFTFSNYNMNWVRQAPGKGLEWVSSISSSSSYIYYADSVKGRFTISRDNAKNSLYLQMNSLRAEDTAVYYCARDALDFDWLLSAGGFDYWGQGTLVTVSS
VL: ASALTQPASVSGSPGQSITISCTGTSSDVGGYNYVSWYQQHPGKAPKLMIYEVSNRPSGVSNRFSGSKSGNTASLTISGLQAEDEADYYCSSYTSSSTLVFGGGTKLTVLG
notes: as for B1
For B2, the binding result in test [2] is reported as “binds”.

B3: TMEL1030 (antibody, V domains shown)
VH: QVQLQESGPGLVKPSGTLSLTCAVSGGSISSSNCWSWVRQPPGKGLEWLGEICHSGSTSYNPSLKSRVTISVDKSKNQFSLKLRSVTAADTAVYYCARESPLTVVFDYWGQGTLVTVSS
VL: DIQMTQSPSSLSASVGDRVTITCRASQGIRNDLGWFQQKPGKAPKRLIYAASNLPSGVSSRFSGSGSGTEFTLTISSLQPEDFATYYCLQHNNYPLTFGQGTKVEFKR
notes: as for B1
Regarding B3, in the test with Bcl2 like 1, the binding result was “binds”.

B4: TMEL1020 (antibody, V domains shown)
VH: QVHLVQSGAEVKKPGASVKVSCKASGYTFTNYFIHWVRQAPGQGPEWMGVINPSFGSTTYAQKLQGRVTMTRETSTSTVYMELSSLRSEDTAVYYCARESLDSASYSTIAHWGQGTLVTVSS
VL: EIVLAQSPGTLYLSPGERATLSCRASQSVRGNYLAWYQQRPGQAPRLLIYGASSRATGIPDRFGGSGSGTDFTLTITRLLPEDFAVYYCHQYGSSPRTFGQGTKVEIKR
notes: as for B1
In the case of B4, the binding result in [3] was “binds”.

B5: TMEL1018 (antibody, V domains shown)
VH: PLQLQESGPGLVKPSETLSLTCTVSGGSISSSSYYWGWIRQPPGKGLEWIGSIYYSGSTYYNPSLKSRVTISVDTSKNQFSLKLSSVTAADTAVYSCARLLVGGAFDIWGQGTMVTVSS
VL: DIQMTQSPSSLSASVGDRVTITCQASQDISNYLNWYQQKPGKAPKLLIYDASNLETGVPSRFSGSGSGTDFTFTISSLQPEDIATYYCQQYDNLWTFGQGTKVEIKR
notes: as for B1
Regarding B5, the binding result (with Ubiquilin 3; with ubiquilin 2; in [4]) was “binds” in each case.

B6: TMEL1028 (antibody, V domains shown)
VH: QVQLVQSGAEVKKPGASVKVSCKASGYTFTSYGISWVRQAPGQGLEWMGWISAYNGNTNYAQKLQGRVTMTTDTSTSTAYMELRSLTSDDTAVYYCARDQGLERANWFDPWGQGTLVTVSS
VL: not shown
notes: as for B1
On to B6, for which the binding result (with zinc finger protein 296; in test [5]) was “binds” throughout.
